Earlier results on 4 substances are cited in PMC6502704.

Where two headings read alike, the source gives them in different places.

Series [1] deals with BMAL1 TAD (Mus musculus) (UniProt Q9WTL8).
For series [2] the target is unchanged. This is another data set of the same source.
Series [3] has as its target BMAL1 577-625 (Mus musculus) (UniProt Q9WTL8).
Series [4] shares this target. The source holds these as a separate data set.
The target of series [5] is BMAL1 490-625 (Mus musculus) (UniProt Q9WTL8).

As for CBP KIX (from UniProt P45481), in the series with BMAL1 TAD (Mus musculus) [1], the Kd was 2 µM. Take CRY1 (from UniProt P97784): the Kd with BMAL1 TAD (Mus musculus) [2] was 10 µM. Consider CRY1 CCT (from UniProt P97784), for which, in series [3], the dissociation constant (Kd) is 10 µM. As for CRY2 CCT (from UniProt Q9R194), the Kd in series [4] and in series [5] was 10 µM in each case.
